41 sequences from the nanobody polyreactivity screen of Harvey et al. (2022) can be followed below.

This data set can be described thus: yeast display, Sf9 membrane polyspecificity reagent, FACS + sequencing; frameworks hold sequencing errors. The method in brief: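 Nanobodies from a synthetic yeast display library (Saccharomyces cerevisiae BJ5465), induced 36–48 hours with galactose, were stained 1 hour at 4 °C with 10% biotinylated, detergent-solubilized Sf9 membrane reagent, enriched on streptavidin microbeads, then FACS-sorted. Anti-HA (expression) and streptavidin (reagent binding) fluorescence set low and high (top ~1%) gates. Polyreactivity labels come from the gate of origin. Genes were colony-PCR amplified, MiSeq 2 × 250 sequenced and filtered by CDR length.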
With “QVQLVESGGGLVQAGGSLRLSCAASGRSIAYYAMGWYRQAPGKERELVAAINWSGGRTYYADSVKGRFTLSRDNAKNTVYLQMNSLKPEETAVYYCNAVYNESRGSYQDDYWGQGTQVTVSS”, the “polyreactivity (PSR sort gate)” value was “high polyreactivity”.

In the case of “QVQLVESGGGLVQAGGSLRLSCAASGRSLGWYAMGWYRKAPGKERELVAAISSGVRTNYADSVKGRFTISRDNAKNTVYLQMNSLKPEDTAVYYCAAATYNQDYSYDYWGQGTQVTVSS”, the “polyreactivity (PSR sort gate)” value is “low polyreactivity”. The result for “QVQLVESGGGLVQAGGSLRLSCAASGRTCGRYAMVLYRQAPGKERELVAAISYSGGSTYYADSVKGRFTISRDNAKNTVYLQMNSLKPEDTAVYYCARYSIFRWTRDEYWGQGTQVTVSS” reads “high polyreactivity”; that for “QVQLVESGGGLVQAGGSLRLSCAASGRTCWYKAMGWYRQAPGKERELVAPITSGGRTKYADSVKGRFTISRDNAKNTVYLQMNSLKPEDTAVYYCNTYNRRSGTLPKPYDYWGQGTQVTVSS”, “high polyreactivity”. For “QVQLVESGGGLVQAGGSLRLSCAASGRTCYNTMGWYRQAPGKERELVAAISRGGITNYADSVKGRFTISRDSAKKTGYLQMNRLKPEDTAVYYCNAEPKRYYYYYKFDYWGQGTQVTVSS”, the “polyreactivity (PSR sort gate)” value was “high polyreactivity”.

For “QVQLVESGGGLVQAGGSLRLSCAASGRTDAYYAMGWYRQAPGKERELVAAITRGGSTYYADSVKGRFTISRDNAKNTVYLQMNSLKPEDTAVYYCAAATSPYQDDYWGQGTQVTVSS”, the “polyreactivity (PSR sort gate)” value is “low polyreactivity”.

On to “QVQLVESGGGLVQAGGSLRLSCAASGRTFAAYTMGWYSQAPGKERELVAAIRRSGSSTYYADSVKGRFTISRDNAKNTVYLQMNSLKPEDTAVYYCARVGRFTGGGYWGQGTQVTVSS”, for which the “polyreactivity (PSR sort gate)” value is listed as “high polyreactivity”. On to “QVQLVESGGGLVQAGGSLRLSCAASGRTFAGNAMGWYRQAPGKERELVAAIRRTGGRTYYADSVKGRFTISRDNAKNTVYLQMNSLKPEETAVYYCNAVNKPYTREYGYDYWGQGTQVTGSS”, for which the “polyreactivity (PSR sort gate)” value was “high polyreactivity”.

As to “QVQLVESGGGLVQAGGSLRLSCAASGRTFAGNAMGWYRQAPGKERELVAGISSGGSTNNADSVKGRFTSTRDNAKNTVYLQMNSLNPEDTAVYYCAKRYFRKGYPLFQYAYGYWGQGTQVTLSS”, the “polyreactivity (PSR sort gate)” value is listed as “high polyreactivity”. To “QVQLVESGGGLVQAGGSLRLSCAASGRTFAGYAMGWYRQAPGKERELVAAISTRGGSTYYADSVKGRFTISRDNAKNTVYLQMNSLKPEDTAVYYCAATKPKFYQFDYWGQGTQVTVSS” belongs “high polyreactivity”; to “QVQLVESGGGLVQAGGSLRLSCAASGRTFAGYVMGWYRQAPGKERELVAAISTSGGSTRYADSVKGRFTISRDNAKNTVYLQMNSLKPEDTAVYYCAKLLYLGRWRFPAGYNHWGQGTQVTVSS”, “high polyreactivity”.

On to “QVQLVESGGGLVQAGGSLRLSCAASGRTFAIDAMGWYRQAPGKEREFVAAISWSGGDTYYADSVKGRFTISRDNAKNTVYFQMNRLKPEDTAVYYSAGRDNDYEGRDLQDELDYWGQGTQVTVSS”, for which the “polyreactivity (PSR sort gate)” value is “low polyreactivity”. For “QVQLVESGGGLVQAGGSLRLSCAASGRTFAINARGWYRQAPGKERELVAAITTSGGGTYYADSVKGRFTISRDNAKNTVYLQMNSLKPEDTAVYYCAAGTSYYTYRFYAWDYDYWGQGTQVTVSS”, the “polyreactivity (PSR sort gate)” value is “low polyreactivity”. The result for “QVQLVESGGGLVQAGGSLRLSCAASGRTFAIYAMGWYRQAPGKERELVAGITIRGGRTYYADSVKGRFTISRYIAKNTVYLQMNSLKPEDTAVYYCNARGWYEYGWGQGTQVTVSS” reads “high polyreactivity”; that for “QVQLVESGGGLVQAGGSLRLSCAASGRTFAKYAMGWSRPAPGKERELVAAIRWSGGSTYYADSVKGRFTISRDNAKNTVYLQMTSLKPEDTAVYYCATERFVLGLGYDYWGQGTQVTVSS”, “high polyreactivity”. The result for “QVQLVESGGGLVQAGGSLRLSCAASGRTFAKYAMGWYRQAPGKERELVAAIRWSGGSTYYADSVKGRFTISRDNAKNTVYLQMNSLKPEDTAVYYCAARPALWGRYRGYDYWGQGTQVTVSS” reads “high polyreactivity”; that for “QVQLVESGGGLVQAGGSLRLSCAASGRTFAKYAMGWYRQAPGKERELVAAISDSGGSTYYADSVKGRFTISRDNAKNTVYLQMNSLKPEDTAVYYCAADGRYTYYWGQGTQVTVSS”, “high polyreactivity”; that for “QVQLVESGGGLVQAGGSLRLSCAASGRTFAKYAMGWYRQAPGKERELVASISGRGTNTYYADSVKGRFTISRDNAKNTVYLQMNSLKPEDTAVYYCAATYVYPYRDSHYYYWGQGTQVTVSS”, “high polyreactivity”.

For the sequence “QVQLVESGGGLVQAGGSLRLSCAASGRTFAKYGMGWYIQAPGKERELVAAIDYSGGSTYYADSVKGRFTISRDNAKNTVYLQMNSLKPEDTAVYYCAADYFWLYYSEYGYWGQGTQVTVSS”, the “polyreactivity (PSR sort gate)” value was “low polyreactivity”. To “QVQLVESGGGLVQAGGSLRLSCAASGRTFALNAMGWYRQAPGKERELVAAISWSSGRTYYADSVKGRFTISRDNAKNTVYLQMNSLKPEDTAVYYCAALVAHKGDYWGQGTQVTVSS” belongs “high polyreactivity”; to “QVQLVESGGGLVQAGGSLRLSCAASGRTFALYAMGWYRHAPGKERELVASISWRGGSTYYADSVKGRFTISRDNAKNTVYLQMNSLKPEDTAVYYCAADTWSYGPLNYRLEYWGQGTQVTVSS”, “low polyreactivity”; to “QVQLVESGGGLVQAGGSLRLSCAASGRTFALYAMGWYRQAPGKERELVATITFIGDSTYYADSVKGRFTISRDNAKNTVYLQMNCLKPVDTAVYYCNATYGPYYPGIVTYIWFDHWGQGSQVTVSS”, “low polyreactivity”. To “QVQLVESGGGLVQAGGSLRLSCAASGRTFANNAMGWYRQAPGKERELVARISNSGSTNYADSVKGRFTISRDNAKNTVYLQMNSLKPEDTAVYYCAARIVRLYSRYDYWGQGTQVTVSS” belongs “low polyreactivity”; to “QVQLVESGGGLVQAGGSLRLSCAASGRTFANYAMGWYRQAPGKERELVAAITSGGRTYYADSVKGRFTISRDNAKNTVYLQMNSLKPEDTAVYYCAADYTYDYQNDYWGQGTQVTVSS”, “high polyreactivity”. To “QVQLVESGGGLVQAGGSLRLSCAASGRTFAPNAMRWSRQAPGKERELVARITWSGTDTYYADSVKGRFTISRDNAKNTVYLQMNSLKPEDTAVYYCAADARYSRRYYYWGQGTQVTVSS” belongs “low polyreactivity”. With “QVQLVESGGGLVQAGGSLRLSCAASGRTFAPNTMGWYRQAPGKERELVATISSGGSTNYADSVKGRFTISRDNAKNTVYLQMNSLKPEDTAVYYCAARYRIVYRSHWGFTSYDYWGQGTQVTVSS”, the “polyreactivity (PSR sort gate)” value is reported as “low polyreactivity”.

For “QVQLVESGGGLVQAGGSLRLSCAASGRTFAPYAMGWYRQAPGKERELVAAITSGGSTYYADSVKGRFTISRDNAKNTVYLQMNSLKPEDTAVYYCAAKFVGTTVSEYGYWGQGTEVTVSS”, the “polyreactivity (PSR sort gate)” value was “low polyreactivity”. On to “QVQLVESGGGLVQAGGSLRLSCAASGRTFAPYAMGWYRQARGQERELVATITRTGRTNYADSVKGRFTISRDNAKNTVYLQMNSLKPEDTAVYYCAAYTYYGFYYWGQGTQVTVSS”, for which the “polyreactivity (PSR sort gate)” value is “high polyreactivity”.

“QVQLVESGGGLVQAGGSLRLSCAASGRTFAPYAMVWYRQAPGKERELVAAITYSGGSTYYADSVKGRFTISRDNAKNTVYLQMNSLIPADTAVYYCAADSDYDPYDYWGQGTQVTVSS”: the “polyreactivity (PSR sort gate)” value is reported as “low polyreactivity”. The result for “QVQLVESGGGLVQAGGSLRLSCAASGRTFARHVMGWYCQAPGKVRELVAGITTSGGSTYYADSVKGRFTISRDNPKNTGYFQMNSLKPEDTAVYYCATDRQRYYRTVRSPIFNYWGQGTQVTVSS” reads “high polyreactivity”. The result for “QVQLVESGGGLVQAGGSLRLSCAASGRTFARNVMGSYRQAPGKERELVAAIRGSGGSTYYADSVKGRFTISRDNSKNTVYLQMNSLKPEDTAVYYCAADSSYTKRYSPTKLHFEYWGQGTQVTVSS” reads “high polyreactivity”; that for “QVQLVESGGGLVQAGGSLRLSCAASGRTFARYAIGWSRQAPGKERELVAAITRRGGSTYYADSVKGRFTLSRDNAKNTVYLQMNSLKPEDTAVYYCAAHYPNFGIGAYEYWGQGTQVTVSS”, “high polyreactivity”.

Take “QVQLVESGGGLVQAGGSLRLSCAASGRTFARYAMGWYRQAPGKERELVASIRRGTSTNYADSVKGRFTISRDNAKNTVYLQMNSLKPEDTAVYYCAARVGTEGYHGDYWGQGTQVTVSS”: the “polyreactivity (PSR sort gate)” value is “high polyreactivity”. The result for “QVQLVESGGGLVQAGGSLRLSCAASGRTFARYTMGWYRQAPGKERELVAAITSGGGSTYYADSVKGRFTISRDNAKNTVYLQMNSLKPEDTAVYYCNARRYYYITGRYGYWGQGTQVTVSS” reads “high polyreactivity”. With “QVQLVESGGGLVQAGGSLRLSCAASGRTFASNDMGWYRHAPGNERELVAGITGSGGSTYYADSVKGRFTISRDNAKNTVYLQMNSLKPEDTAVYYCAADRSRGYGYDYWGQGTQVTVSS”, the “polyreactivity (PSR sort gate)” value was “low polyreactivity”. In the case of “QVQLVESGGGLVQAGGSLRLSCAASGRTFASYAMGWYRKAPGKETELVATISSGDSTYADSVKGRFTISRDNAKITVYLQRNRLKPEDTAVYYCAAASDLPGTCGYDYWGQGTQVTVSS”, the “polyreactivity (PSR sort gate)” value is “low polyreactivity”. The result for “QVQLVESGGGLVQAGGSLRLSCAASGRTFASYTMGWYRQAPGKERELVAAITRGGSTNYADSVKGRFTISRDNAKNTVYLQMNSLKPEDTAVYYCAARFSRSFGYNYWGQGTQVTVSS” reads “high polyreactivity”; that for “QVQLVESGGGLVQAGGSLRLSCAASGRTFASYTMGWYRQPPGKESELVAAINARGGNTYYADSVKGRFTISRDNAKNTVYLQMNSLKPEDTAVYYCAARQKRFKVAAGYDYWGQGTQVTVSS”, “high polyreactivity”; that for “QVQLVESGGGLVQAGGSLRLSCAASGRTFAWYAMGWYRQAPGKERELVAAISSSGGTTYYADSVKGRFTISRDNAKNTVYLQMNSLKPEDTAVYYCAARPGFWEYWGWWYDRYEYWGQGTQVTVSS”, “low polyreactivity”. For “QVQLVESGGGLVQAGGSLRLSCAASGRTFAYNAMGWYRQAAGKVRELVASITSGGSTNYADSVKGRFTISRDNAKNTVYLQMNSLKPEDTAVYYFIKDGKYHRVLYEYWGQGTQVTVSS”, the “polyreactivity (PSR sort gate)” value is on record as “low polyreactivity”. To “QVQLVESGGGLVQAGGSLRLSCAASGRTFAYNAMGWYRQAPGKERELVAGITGGNSRTYYADSVKGRFTISRDNAKNTVYLQMNSLKPEDTAVYYCARRFYKGTSKTNLFDYWGQGTQVTVSS” belongs “high polyreactivity”.
